Measured values from paper PMC12036983.

Target: hEAAT3-X (Hg2+-crosslinked Cys-mini K269C/W441C hEAAT3g, human excitatory amino acid transporter 3) (human) (UniProt P43005)
Assay: cryo-EM structure; hEAAT3-X at ~5 mg/mL in 20 mM HEPES-Tris pH 7.4, 200 mM NaCl, 0.01% GDN with 10 mM L-Asp, D-Asp, R-2HG or L-Cys; maps refined with C3 symmetry

stoichiometry N: 3
Substance: hEAAT3-X (Hg2+-crosslinked Cys-mini K269C/W441C hEAAT3g, human excitatory amino acid transporter 3) (from UniProt P43005 1-524)
